Among the data in PMC11582362 are Kd values, retold here.

This data set has as its system chimeric ADAR1-dsRBD3/Xlrbpa-dsRBD2 (Homo sapiens / Xenopus laevis?). The experiment in a line: ITC. The conditions noted are these: N = 3.05 ± 0.31; ITC: 25 mM Na-phosphate pH 7.0, 100 mM NaCl, 2 mM 2-mercaptoethanol, 25 °C; 2.25 uM dsRNA in cell, 80 uM protein in syringe.

pKd: −log10 of the molar value.

Sequence “GGGAUCAAUAUGCUAAGCGAUCCC / GGGAUCGCUUAGCAUAUUGAUCCC [24 bp dsRNA duplex]” had a negative-log Kd (pKd) of 6.30.
